Laboratory results: US20060270591A1, “Androgen receptor coregulators” (priority 2002, published 2006)

Tests used:
ER = biological target: T1, ER (Homo sapiens, UniProt P03372); assay: ER transactivation with ARA70 in DU145 cells (Example 3); assay type: cell-based; parameters: expressed in transfected cells; host or cells: DU145
T1 sequence (P03372 1-595): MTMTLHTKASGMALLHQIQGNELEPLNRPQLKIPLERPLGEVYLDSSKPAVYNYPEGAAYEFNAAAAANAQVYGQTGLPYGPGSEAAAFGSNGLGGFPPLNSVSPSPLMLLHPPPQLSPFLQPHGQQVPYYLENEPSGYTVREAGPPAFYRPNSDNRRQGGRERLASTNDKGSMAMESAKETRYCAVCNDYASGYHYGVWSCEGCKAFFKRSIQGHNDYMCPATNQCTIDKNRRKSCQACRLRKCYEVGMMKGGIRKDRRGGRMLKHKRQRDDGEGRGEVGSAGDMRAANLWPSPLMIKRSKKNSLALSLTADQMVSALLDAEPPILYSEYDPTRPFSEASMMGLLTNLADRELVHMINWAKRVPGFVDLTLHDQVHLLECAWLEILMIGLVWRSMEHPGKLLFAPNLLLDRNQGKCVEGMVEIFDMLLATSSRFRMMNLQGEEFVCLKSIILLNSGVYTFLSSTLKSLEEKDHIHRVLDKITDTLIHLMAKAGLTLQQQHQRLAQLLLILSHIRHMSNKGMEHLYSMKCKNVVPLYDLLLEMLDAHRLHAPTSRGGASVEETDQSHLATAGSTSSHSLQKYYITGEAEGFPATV
Description: (§1) 411. Human prostate cancer DU145 and PC-3 cells were maintained in […] (DMEM) containing penicillin (25 U/ml), streptomycin (25 μg/ml), and 5% fetal calf serum (FCS). Human LNCaP cells were maintained in RPMI containing penicillin (25 U/ml), streptomycin (25 μg/ml), and 10% FCS. Transfections were performed using the calcium phosphate precipitation method, as previously described (Dynlacht et al. (1991) Cell 66, 563-576). Briefly, 4×10^5 cells were plated on 60-mm dishes 24 hours before transfection, and the medium was changed to DMEM with 5% charcoal-dextran stripped FCS (CS-FBS) one hour before transfection. Transfection medium contained a constant amount of reporter plasmid and indicated amounts of pSG5-receptor, ARA70, or pCMX-GAL fusion construct using pSG5 as a carrier to provide equal amounts of transfected DNA. Twenty-four hours after transfection, the medium was changed again, and the cells were treated with DHT or other treatments. After another 24 hours, the cells were harvested for chloramphenicol transferase (CAT) or luciferase assays. At least three independent experiments were carried out in each case. Superfect (Qiagen) was used for transfection in LNCaP cells. The transfection conditions followed the manufacturer's protocol. […]

AR [1] = assay: AR transactivation assay, MMTV-CAT reporter, transient transfection (Example 1); assay type: cell-based, human; conditions: DU145 cells; wild type AR; 1 nM DHT
Description: Human prostate cancer DU145 or PC3 cells, or human lung carcinoma cells NCI H1299 were grown in Dulbecco's minimal essential medium (DMEM) containing penicillin (25 U/ml), streptomycin (25˜g/ml), and 5% fetal calf serum (FCS). One hour before transfection, the medium was changed to DMEM with 5% charcoal-stripped FCS. […] A β-galactosidase expression plasmid, pCMV-β-gal, was used as an internal control for transfection efficiency.
The medium was changed 24 hr posttransfection and the cells treated with either steroid hormones or hydroxyflutamide, and cultured for an additional 24 hr. Cells were harvested and assayed for CAT activity after the cell lysates were normalized by using β-galactosidaseas an internal control. Chloramphenicol acetyltransferase (CA) activity was visualized by PhosphorImager (Molecular Dynamics) and quantitated by ImageQuant software (Molecular Dynamics).
Target sequence in this assay (P10275 whole entry): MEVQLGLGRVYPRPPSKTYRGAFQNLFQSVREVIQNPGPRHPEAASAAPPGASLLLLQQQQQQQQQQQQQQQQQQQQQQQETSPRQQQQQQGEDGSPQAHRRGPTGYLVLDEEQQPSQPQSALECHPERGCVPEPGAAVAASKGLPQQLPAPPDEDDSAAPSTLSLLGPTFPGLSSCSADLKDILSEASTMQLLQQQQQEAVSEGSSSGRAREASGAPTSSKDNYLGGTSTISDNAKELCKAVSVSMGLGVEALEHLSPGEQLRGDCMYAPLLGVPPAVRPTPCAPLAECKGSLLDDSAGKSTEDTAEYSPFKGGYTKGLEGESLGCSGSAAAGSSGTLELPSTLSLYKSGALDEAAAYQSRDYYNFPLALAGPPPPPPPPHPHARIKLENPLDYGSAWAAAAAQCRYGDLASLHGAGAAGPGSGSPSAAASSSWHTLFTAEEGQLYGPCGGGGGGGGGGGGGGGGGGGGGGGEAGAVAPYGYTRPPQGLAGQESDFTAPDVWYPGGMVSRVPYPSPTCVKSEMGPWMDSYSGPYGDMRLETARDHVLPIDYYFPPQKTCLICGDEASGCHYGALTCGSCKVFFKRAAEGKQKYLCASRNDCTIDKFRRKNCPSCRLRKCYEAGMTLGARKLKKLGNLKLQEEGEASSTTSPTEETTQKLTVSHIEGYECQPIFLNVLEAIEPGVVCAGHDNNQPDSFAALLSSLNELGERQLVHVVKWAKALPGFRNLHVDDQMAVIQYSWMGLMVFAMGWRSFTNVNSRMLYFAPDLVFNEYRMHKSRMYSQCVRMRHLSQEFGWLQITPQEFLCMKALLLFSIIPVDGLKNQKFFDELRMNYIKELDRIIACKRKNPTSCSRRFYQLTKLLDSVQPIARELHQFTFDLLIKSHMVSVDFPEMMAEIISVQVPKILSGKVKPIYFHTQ

GR = biological target: T2, GR (Homo sapiens, UniProt P04150); assay: GR transactivation with ARA70 in DU145 cells (Example 3); assay type: cell-based; parameters: expressed in transfected cells; host or cells: DU145
T2 sequence (P04150 1-777): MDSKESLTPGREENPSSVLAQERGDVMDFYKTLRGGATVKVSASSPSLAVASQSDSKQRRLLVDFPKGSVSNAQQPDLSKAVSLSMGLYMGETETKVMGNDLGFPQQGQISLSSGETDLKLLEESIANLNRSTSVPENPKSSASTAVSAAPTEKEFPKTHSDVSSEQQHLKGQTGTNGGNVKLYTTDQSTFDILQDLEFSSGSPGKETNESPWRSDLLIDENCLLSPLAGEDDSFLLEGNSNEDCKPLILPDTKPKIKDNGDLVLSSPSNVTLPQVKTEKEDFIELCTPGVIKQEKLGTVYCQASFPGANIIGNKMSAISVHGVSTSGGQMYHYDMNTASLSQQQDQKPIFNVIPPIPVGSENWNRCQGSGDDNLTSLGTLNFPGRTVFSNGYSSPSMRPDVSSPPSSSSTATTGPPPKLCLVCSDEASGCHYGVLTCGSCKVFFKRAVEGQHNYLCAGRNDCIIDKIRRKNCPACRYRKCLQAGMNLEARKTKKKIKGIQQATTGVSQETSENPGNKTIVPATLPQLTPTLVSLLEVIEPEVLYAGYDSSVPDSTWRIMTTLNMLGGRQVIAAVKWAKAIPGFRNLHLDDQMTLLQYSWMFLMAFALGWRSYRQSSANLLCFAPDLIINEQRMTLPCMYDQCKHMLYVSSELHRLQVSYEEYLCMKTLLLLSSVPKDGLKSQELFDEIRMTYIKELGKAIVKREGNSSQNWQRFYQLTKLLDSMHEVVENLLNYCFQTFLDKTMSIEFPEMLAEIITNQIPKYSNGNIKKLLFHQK
Description: as §1

AR [2] = assay: Immunocytofluorescence, semi-quantitative nuclear AR staining in COS-1 cells; assay type: cell-based; conditions: 10 nM DHT, p<0.0005
Description: 415. COS-1 cells were seeded on two-well Labtek II slides (Nalge) 24 hours before transfection. Two micrograms of DNA per 10^5 cell was transfected with the AR, with or without full length ARA70 (ARA70-FL) using FuGENE6 transfection reagent (Roche). […] Immunostaining was performed by incubation with anti-AR polyclonal antibody (NH27) or anti-ARA70 mouse monoclonal antibody (CC70), followed by incubation with either fluorescence-conjugated goat anti-rabbit or anti-mouse antibodies (ICN). The red signal represents the AR and the green signal represents ARA70.
416. Three hundred cells with normal morphologies and clear AR nuclear translocation were scored for AR staining using a fluorescence microscope. Cells were scored on a scale of one to five, with one representing the lowest AR staining intensity above the background level. The cells were then separated into two groups based on the presence or absence of ARA70.
417. The mean AR staining intensity and standard deviation were then calculated for the ARA70 negative and positive populations. Using […], a two sample t-test (assuming unequal variances) was then performed to determine if the difference in the mean AR staining intensities in the two populations was statistically significant (α=0.05).
Target sequence in this assay (P10275 with tags, fused parts or gaps DEL79-80/DUP473-473): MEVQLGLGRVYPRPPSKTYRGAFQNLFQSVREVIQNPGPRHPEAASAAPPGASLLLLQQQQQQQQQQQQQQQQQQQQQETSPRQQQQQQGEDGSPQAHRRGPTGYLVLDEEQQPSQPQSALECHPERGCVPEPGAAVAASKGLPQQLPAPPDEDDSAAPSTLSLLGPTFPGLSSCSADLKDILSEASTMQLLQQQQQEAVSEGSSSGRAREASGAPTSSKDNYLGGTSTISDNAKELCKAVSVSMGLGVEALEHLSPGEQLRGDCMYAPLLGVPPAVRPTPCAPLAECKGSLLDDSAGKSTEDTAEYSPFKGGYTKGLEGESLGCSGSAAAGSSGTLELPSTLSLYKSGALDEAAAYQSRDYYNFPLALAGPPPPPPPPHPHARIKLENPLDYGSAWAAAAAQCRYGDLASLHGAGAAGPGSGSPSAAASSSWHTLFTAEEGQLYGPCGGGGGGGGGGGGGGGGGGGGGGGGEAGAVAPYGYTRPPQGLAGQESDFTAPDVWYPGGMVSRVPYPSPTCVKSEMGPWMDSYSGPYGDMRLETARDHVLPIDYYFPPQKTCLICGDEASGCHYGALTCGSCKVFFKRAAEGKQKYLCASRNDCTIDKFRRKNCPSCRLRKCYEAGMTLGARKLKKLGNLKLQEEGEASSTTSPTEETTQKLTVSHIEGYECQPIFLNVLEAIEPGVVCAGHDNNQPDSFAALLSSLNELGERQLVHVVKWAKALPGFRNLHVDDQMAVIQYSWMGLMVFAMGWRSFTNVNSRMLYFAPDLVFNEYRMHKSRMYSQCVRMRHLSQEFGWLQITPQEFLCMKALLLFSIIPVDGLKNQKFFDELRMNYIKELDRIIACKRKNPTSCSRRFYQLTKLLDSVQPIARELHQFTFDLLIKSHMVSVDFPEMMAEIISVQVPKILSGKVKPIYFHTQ

enhancement of ER transactivation (ER): 2-3 fold
enhancement of GR transactivation (GR): 2-3 fold
Substance: ARA70: ligand-enhanced AR coregulator, full length ARA70
AR transcription activity with cotransfected coactivator (AR [1]): 36 fold
nuclear AR staining intensity (AR [2]): significantly enhances nuclear AR staining intensity
